Measurements from publication PMC4538830.

Target: T1, full-length recombinant His tagged CTNNBL1 (human), Q8WYA6
T1 chain: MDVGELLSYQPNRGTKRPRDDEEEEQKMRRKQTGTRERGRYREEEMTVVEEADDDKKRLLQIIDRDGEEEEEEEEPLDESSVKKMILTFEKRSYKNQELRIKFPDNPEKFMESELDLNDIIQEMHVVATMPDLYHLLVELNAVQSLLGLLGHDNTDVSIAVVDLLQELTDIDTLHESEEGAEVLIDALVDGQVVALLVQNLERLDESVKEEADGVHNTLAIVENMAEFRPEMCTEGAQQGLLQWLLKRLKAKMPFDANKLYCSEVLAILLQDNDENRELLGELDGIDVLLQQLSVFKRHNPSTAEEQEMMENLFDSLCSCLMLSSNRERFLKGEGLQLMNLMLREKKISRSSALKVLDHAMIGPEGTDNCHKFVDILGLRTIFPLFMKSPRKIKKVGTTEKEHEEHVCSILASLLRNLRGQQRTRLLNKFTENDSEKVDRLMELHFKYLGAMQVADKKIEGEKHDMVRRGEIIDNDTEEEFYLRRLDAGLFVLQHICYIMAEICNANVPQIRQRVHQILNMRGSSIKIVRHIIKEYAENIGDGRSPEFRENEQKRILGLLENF
Experiment: SEC-MALS; CTNNBL1 (full length or [77–563]) alone; also in high salt buffer (0.5 M NaCl) or with CWC15[80–229] added; Supplementary Figure S7
Details: remark: other sources report otherwise

- stoichiometry N: 3
B1: full-length recombinant His tagged CTNNBL1, Q8WYA6 1-563 (natural protein)
chain: T1 chain
